Reference: patent US20180155451A1 (published 2018)

T1: FcγRIIb, extracellular domain with C-terminal His tag (human, UniProt P31994 43-217)
T1 construct: extracellular domain; Soluble receptor expressed in FreeStyle293 cells; analyte in Biacore; also called FcgRIIb; 2b; not shown: C-terminal His tag
T1 sequence (looked up): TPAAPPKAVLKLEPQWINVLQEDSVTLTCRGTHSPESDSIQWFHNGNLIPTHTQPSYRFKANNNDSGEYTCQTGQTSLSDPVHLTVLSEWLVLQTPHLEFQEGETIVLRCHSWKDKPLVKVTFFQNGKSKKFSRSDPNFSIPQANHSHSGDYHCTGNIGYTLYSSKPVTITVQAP

T2: FcγRIIa H (FcγRIIa, type H allotype, His at position 131), extracellular domain with C-terminal His tag (human, UniProt P12318 34-217)
T2 construct: extracellular domain; Soluble receptor expressed in FreeStyle293 cells; analyte in Biacore; also called FcgRIIa H; 2aH; not shown: C-terminal His tag
T2 sequence (looked up): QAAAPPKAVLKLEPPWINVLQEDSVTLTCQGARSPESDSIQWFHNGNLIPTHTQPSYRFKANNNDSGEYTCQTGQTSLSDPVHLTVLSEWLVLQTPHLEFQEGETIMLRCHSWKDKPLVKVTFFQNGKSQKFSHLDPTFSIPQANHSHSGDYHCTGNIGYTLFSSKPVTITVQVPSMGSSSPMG

B1: GpH7-A5/GpH7-B3 variant D270_15Y/GpL16-k0 (antibody, human IgG1, kappa)
heavy 1: not shown
heavy 2: not shown
light: DIVMTQSPLSLPVTPGEPASISCQASESLVHSNRNTYLHWYLQKPGQSPQLLIYKVSNRFSGVPDRFSGSGSGTDFTLKISRVEAEDVGVYYCSQNTHVPPTFGQGTKVEIERTVAAPSVFIFPPSDEQLKSGTASVVCLLNNFYPREAKVQWKVDNALQSGNSQESVTEQDSKDSTYSLSSTLTLSKADYEKHKVYACEVTHQGLSSPVTKSFNRGEC
notes: Heterodimerized IgG1; mutation only in the GpH7-B3 chain; also called He Ab
B2: GpH7-A5/GpH7-B3 variant Q295_07I/GpL16-k0 (antibody, human IgG1, kappa)
heavy 1: not shown
heavy 2: not shown
light: B1 light
notes: as for B1
B3: GpH7-A5/GpH7-B3 variant D270_19Q/GpL16-k0 (antibody, human IgG1, kappa)
heavy 1: not shown
heavy 2: not shown
light: B1 light
notes: as for B1
B4: GpH7-A5/GpH7-B3 variant P271_15Y/GpL16-k0 (antibody, human IgG1, kappa)
heavy 1: not shown
heavy 2: not shown
light: B1 light
notes: as for B1
B5: GpH7-A5/GpH7-B3 variant E269_04F/GpL16-k0 (antibody, human IgG1, kappa)
heavy 1: not shown
heavy 2: not shown
light: B1 light
notes: as for B1
B6: GpH7-A5/GpH7-B3 variant S298_20W/GpL16-k0 (antibody, human IgG1, kappa)
heavy 1: not shown
heavy 2: not shown
light: B1 light
notes: as for B1
B7: GpH7-A5/GpH7-B3 variant E269_11K/GpL16-k0 (antibody, human IgG1, kappa)
heavy 1: not shown
heavy 2: not shown
light: B1 light
notes: as for B1
B8: GpH7-A5/GpH7-B3 variant S298_03V/GpL16-k0 (antibody, human IgG1, kappa)
heavy 1: not shown
heavy 2: not shown
light: B1 light
notes: as for B1
B9: GpH7-A5/GpH7-B3 variant E269_18N/GpL16-k0 (antibody, human IgG1, kappa)
heavy 1: not shown
heavy 2: not shown
light: B1 light
notes: as for B1
B10: GpH7-A5/GpH7-B3 variant S298_19Q/GpL16-k0 (antibody, human IgG1, kappa)
heavy 1: not shown
heavy 2: not shown
light: B1 light
notes: as for B1
B11: GpH7-A5/GpH7-B3 variant E269_14T/GpL16-k0 (antibody, human IgG1, kappa)
heavy 1: not shown
heavy 2: not shown
light: B1 light
notes: as for B1
B12: GpH7-A5/GpH7-B3 variant Q295_20W/GpL16-k0 (antibody, human IgG1, kappa)
heavy 1: not shown
heavy 2: not shown
light: B1 light
notes: as for B1
B13: GpH7-A5/GpH7-B3 variant Q295_11K/GpL16-k0 (antibody, human IgG1, kappa)
heavy 1: not shown
heavy 2: not shown
light: B1 light
notes: as for B1
B14: GpH7-A5/GpH7-B3 variant E269_02A/GpL16-k0 (antibody, human IgG1, kappa)
heavy 1: not shown
heavy 2: not shown
light: B1 light
notes: as for B1
B15: GpH7-A5/GpH7-B3 variant E269_07I/GpL16-k0 (antibody, human IgG1, kappa)
heavy 1: not shown
heavy 2: not shown
light: B1 light
notes: as for B1
B16: GpH7-A5/GpH7-B3 variant D270_20W/GpL16-k0 (antibody, human IgG1, kappa)
heavy 1: not shown
heavy 2: not shown
light: B1 light
notes: as for B1
B17: GpH7-A5/GpH7-B3 variant S298_14T/GpL16-k0 (antibody, human IgG1, kappa)
heavy 1: not shown
heavy 2: not shown
light: B1 light
notes: as for B1
B18: GpH7-A5/GpH7-B3 variant E269_16H/GpL16-k0 (antibody, human IgG1, kappa)
heavy 1: not shown
heavy 2: not shown
light: B1 light
notes: as for B1
B19: GpH7-A5/GpH7-B3 variant S298_16H/GpL16-k0 (antibody, human IgG1, kappa)
heavy 1: not shown
heavy 2: not shown
light: B1 light
notes: as for B1
B20: GpH7-A5/GpH7-B3 variant Q295_05P/GpL16-k0 (antibody, human IgG1, kappa)
heavy 1: not shown
heavy 2: not shown
light: B1 light
notes: as for B1

target: T1, FcγRIIb, extracellular domain with …; assay: SPR (Biacore), captured antibody, FcγR as analyte

| He/Con_2b | Binder |
| --- | --- |
| 44.9 relative, GpH7-A5/GpH7-B3/GpL16-k0 = 100 | B1 |
| 84.3 relative, GpH7-A5/GpH7-B3/GpL16-k0 = 100 | B2 |
| 48 relative, GpH7-A5/GpH7-B3/GpL16-k0 = 100 | B3 |
| 52.3 relative, GpH7-A5/GpH7-B3/GpL16-k0 = 100 | B4 |
| 45 relative, GpH7-A5/GpH7-B3/GpL16-k0 = 100 | B5 |
| 41.1 relative, GpH7-A5/GpH7-B3/GpL16-k0 = 100 | B6 |
| 17.8 relative, GpH7-A5/GpH7-B3/GpL16-k0 = 100 | B7 |
| 64.5 relative, GpH7-A5/GpH7-B3/GpL16-k0 = 100 | B8 |
| 44.8 relative, GpH7-A5/GpH7-B3/GpL16-k0 = 100 | B9 |
| 73.3 relative, GpH7-A5/GpH7-B3/GpL16-k0 = 100 | B10 |
| 50.6 relative, GpH7-A5/GpH7-B3/GpL16-k0 = 100 | B11 |
| 44.4 relative, GpH7-A5/GpH7-B3/GpL16-k0 = 100 | B12 |
| 70.4 relative, GpH7-A5/GpH7-B3/GpL16-k0 = 100 | B13 |
| 49.9 relative, GpH7-A5/GpH7-B3/GpL16-k0 = 100 | B14 |
| 43.9 relative, GpH7-A5/GpH7-B3/GpL16-k0 = 100 | B15 |
| 34.7 relative, GpH7-A5/GpH7-B3/GpL16-k0 = 100 | B16 |
| 77.9 relative, GpH7-A5/GpH7-B3/GpL16-k0 = 100 | B17 |
| 38.5 relative, GpH7-A5/GpH7-B3/GpL16-k0 = 100 | B18 |
| 63.5 relative, GpH7-A5/GpH7-B3/GpL16-k0 = 100 | B19 |
| 67.5 relative, GpH7-A5/GpH7-B3/GpL16-k0 = 100 | B20 |

target: T2, FcγRIIa H (FcγRIIa, type H allotype, …); assay: SPR (Biacore), captured antibody, FcγR as analyte

| He/Con_2aH | Binder |
| --- | --- |
| 71.9 relative, GpH7-A5/GpH7-B3/GpL16-k0 = 100 | B1 |
| 102 relative, GpH7-A5/GpH7-B3/GpL16-k0 = 100 | B2 |
| 85 relative, GpH7-A5/GpH7-B3/GpL16-k0 = 100 | B3 |
| 64.6 relative, GpH7-A5/GpH7-B3/GpL16-k0 = 100 | B4 |
| 68.5 relative, GpH7-A5/GpH7-B3/GpL16-k0 = 100 | B5 |
| 49.9 relative, GpH7-A5/GpH7-B3/GpL16-k0 = 100 | B6 |
| 51.1 relative, GpH7-A5/GpH7-B3/GpL16-k0 = 100 | B7 |
| 85.1 relative, GpH7-A5/GpH7-B3/GpL16-k0 = 100 | B8 |
| 64.4 relative, GpH7-A5/GpH7-B3/GpL16-k0 = 100 | B9 |
| 91 relative, GpH7-A5/GpH7-B3/GpL16-k0 = 100 | B10 |
| 69.6 relative, GpH7-A5/GpH7-B3/GpL16-k0 = 100 | B11 |
| 55.6 relative, GpH7-A5/GpH7-B3/GpL16-k0 = 100 | B12 |
| 89.4 relative, GpH7-A5/GpH7-B3/GpL16-k0 = 100 | B13 |
| 77.8 relative, GpH7-A5/GpH7-B3/GpL16-k0 = 100 | B14 |
| 66.6 relative, GpH7-A5/GpH7-B3/GpL16-k0 = 100 | B15 |
| 60.2 relative, GpH7-A5/GpH7-B3/GpL16-k0 = 100 | B16 |
| 98.5 relative, GpH7-A5/GpH7-B3/GpL16-k0 = 100 | B17 |
| 59 relative, GpH7-A5/GpH7-B3/GpL16-k0 = 100 | B18 |
| 82.1 relative, GpH7-A5/GpH7-B3/GpL16-k0 = 100 | B19 |
| 103 relative, GpH7-A5/GpH7-B3/GpL16-k0 = 100 | B20 |

target: T2, FcγRIIa H (FcγRIIa, type H allotype, …); assay: ratio of He/Con_2aH to He/Con_2b (FcγRIIa H over FcγRIIb), SPR

| He_2aH/2b (IIaH/IIb) | Binder |
| --- | --- |
| 1.6 | B1 |
| 1.21 | B2 |
| 1.77 | B3 |
| 1.24 | B4 |
| 1.52 | B5 |
| 1.21 | B6 |
| 2.87 | B7 |
| 1.32 | B8 |
| 1.44 | B9 |
| 1.24 | B10 |
| 1.37 | B11 |
| 1.25 | B12 |
| 1.27 | B13 |
| 1.56 | B14 |
| 1.52 | B15 |
| 1.74 | B16 |
| 1.26 | B17 |
| 1.53 | B18 |
| 1.29 | B19 |
| 1.53 | B20 |
